Read-outs that look alike come from different tables or passages of the source.

Data set [1] addresses YnfE signal peptide (Salmonella enterica). The settings on record: cited from earlier work.
Data set [2] concerns the target T25-DmsD fusion protein (S. enterica DmsD attached to the C-terminus of T25) (Salmonella enterica serovar Typhimurium) (UniProt Q8ZPK0). Put plainly: two-hybrid; bacterial adenylate cyclase two-hybrid (spYnfE-T18 and T25-DmsD) in E. coli MAE01 (ΔcyaA); cultures at 30 °C, β-galactosidase activity in Miller units, shown relative to the native pair.
The target is the same in data set [3]. Described as above. This is another data set of the same source.
Data set [4] concerns the molecule itself. Put plainly: cross-linking; 1 % (v/v) formaldehyde, purified DmsD (2 µM) with or without synthetic peptide 2 (100 µM), 30 min, 50 mM HEPES pH 7.6, 150 mM KCl; SDS-PAGE and anti-DmsD immunoblot. In general terms: In western blotting, separated proteins are transferred to a membrane and probed.

YnfE signal peptide (Salmonella enterica), sequence (P77374 1-43): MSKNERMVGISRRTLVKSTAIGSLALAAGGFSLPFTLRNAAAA

Broadly, the Kd is the equilibrium constant for the complex coming apart. As to DmsD (from UniProt Q8ZPK0), the Kd in data set [1] is 45 nM.

Regarding “spYnfE-T18 fusion (42-residue YnfE Tat signal peptide at the N-terminus of T18) (domain or fragment)”, the β-galactosidase activity (positive control, 100 %) in data set [2] was 1720 Miller units; in data set [3], 1650 Miller units.

B1: Recombinant S. enterica DmsD, purified, hexa-histidine tag removed (natural protein, Salmonella enterica serovar Typhimurium, UniProt Q8ZPK0 1-204, looked up)
chain: MTTFLQRDDFAVTARVLGALFYYSPESHETAPLVQALLNDDWQAQWPLDAEALAPVAAMFKTHSEESLPQAWQRLFIGPYALPSPPWGSVWLDRESVLFGDSTLALRQWMRENGIQFEMQQNEPEDHFGSLLLLAAWLAENDRHHECEQLLAWHLFPWSSRFLDVFIDHAGHPFYQALGQLARLTLAQWQAQLIIPVAVKPLFR
notes: DmsD of S. enterica serovar Typhimurium, 204 residues; The forward primer encodes ENLYFQG before the first methionine; also called purified DmsD; pQE-His-TEV-DmsDst; not shown: His6, N-terminal, cleaved
The term stoichiometry N denotes a count of units in the complex or per binding partner. As to B1, the “stoichiometry N” value in data set [4] stood at 2.
